Results from paper PMC3043101.

Target: invariant chain (Ii), endogenous in Raji cells (human (endogenous in Raji)) (UniProt P04233)
Experiment: cross-linking; pooled sucrose gradient fractions 7/8 or 14/15 of Raji cell lysate; increasing DSP (up to 200 µg/ml), 2 h on ice; non-reducing SDS-PAGE; western blot for DRα (TAL-1B5) or Ii (Bu43)

## invariant chain (Ii), endogenous in Raji cells (from UniProt P04233 1-296) (natural protein)
  stoichiometry N: 3
